Key:
[1] = molecular target: T1, ASCT2 (glutamine and other neutral amino acid transporter) (human, UniProt Q15758 1-541); experiment: flow cytometry on pancreatic tumor cell lines (endogenous transporter; ASCT-1/ASCT-2 is the target by Table 1), anti-mouse A647 detection; Capan1 also detected (data not shown)
T1 construct: Endogenous transporter on human pancreatic tumor cell lines; also called human ASCT2
T1 sequence: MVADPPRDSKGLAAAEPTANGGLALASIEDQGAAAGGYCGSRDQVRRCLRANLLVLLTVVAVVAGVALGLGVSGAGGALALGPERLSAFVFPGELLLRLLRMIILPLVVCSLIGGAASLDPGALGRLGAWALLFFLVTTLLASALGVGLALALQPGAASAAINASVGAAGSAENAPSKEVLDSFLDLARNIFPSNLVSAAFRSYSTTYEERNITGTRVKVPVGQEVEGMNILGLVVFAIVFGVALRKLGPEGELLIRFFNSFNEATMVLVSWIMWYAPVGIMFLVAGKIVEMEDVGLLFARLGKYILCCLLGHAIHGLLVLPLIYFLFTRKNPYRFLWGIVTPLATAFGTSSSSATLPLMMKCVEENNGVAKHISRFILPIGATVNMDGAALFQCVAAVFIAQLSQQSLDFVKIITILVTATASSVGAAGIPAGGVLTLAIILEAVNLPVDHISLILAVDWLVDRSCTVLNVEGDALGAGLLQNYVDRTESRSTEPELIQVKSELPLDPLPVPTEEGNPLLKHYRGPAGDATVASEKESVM

[2] = molecular target: T2, ASCT1 (glutamate and neutral amino acid transporter) (human, UniProt P43007 1-532); experiment: as above
T2 construct: Endogenous transporter on human pancreatic tumor cell lines; also called human ASCT1
T2 sequence: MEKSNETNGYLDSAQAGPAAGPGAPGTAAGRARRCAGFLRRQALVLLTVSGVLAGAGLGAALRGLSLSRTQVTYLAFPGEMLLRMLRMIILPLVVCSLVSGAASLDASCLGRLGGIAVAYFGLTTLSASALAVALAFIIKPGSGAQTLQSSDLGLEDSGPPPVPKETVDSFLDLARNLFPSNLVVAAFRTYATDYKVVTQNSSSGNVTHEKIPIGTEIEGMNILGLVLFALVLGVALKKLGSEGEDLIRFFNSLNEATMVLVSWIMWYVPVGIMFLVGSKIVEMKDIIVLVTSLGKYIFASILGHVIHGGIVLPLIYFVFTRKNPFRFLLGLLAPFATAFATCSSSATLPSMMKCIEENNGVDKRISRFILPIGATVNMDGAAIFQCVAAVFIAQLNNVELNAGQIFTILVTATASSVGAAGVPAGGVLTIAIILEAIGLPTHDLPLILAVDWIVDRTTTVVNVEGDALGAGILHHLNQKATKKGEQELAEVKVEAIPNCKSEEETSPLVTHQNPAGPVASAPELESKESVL

B1: HERV-W.RBD.MFC (HERV-W.RBD, receptor-binding domain of the human endogenous retrovirus W envelope glycoprotein, fused to a mouse Fc fragment) (Fc fusion)
chain: APPPCRCMTSSSPYQEFLWRMQRPGNIDAPSYRSLSKGTPTFTAHTHMPRNCYHSATLCMHANTHYWTGKMINPSCPGGLGVTVCWTYFTQTGMSDGGGVQGSVDVPRDCGCKPCICTVPEVSSVFIFPPKPKDVLTITLTPKVTCVVVDISKDDPEVQFSWFVDDVEVHTAQTQPREEQFNSTFRSVSELPIMHQDWLNGKEFKCRVNSAAFPAPIEKTISKTKGRPKAPQVYTIPPPKEQMAKDKVSLTCMITDFFPEDITVEWQWNGQPAENYKNTQPIMDTDGSYFVYSKLNVQKSNWEAGNTFTCSVLHEGLHNHHTEKSLSHSPGK
modifications: I-125 on tyrosine or histidine residues in the in vivo experiment only (IODO-GEN method); unlabelled in flow cytometry
notes: The entry may begin with a signal peptide; also called I-125.HERV-W.RBD.MFC
[1]
  binding result: binds
[2]
  binding result: binds

— patent publication US20180280549A1 (METAFORA BIOSYSTEMS, published 2018)
